# Source: the supplement of paper PMC10065799, “High-throughput profiling of sequence recognition by tyrosine kinases and SH2 domains using bacterial peptide display” (eLife, 2023)
# Columns and labels:
# [1] = molecular target: FGFR1 (UniProt P11362); experiment: phosphorylation enrichment, bacterial display (enrichment ratio); higher = better substrate or ligand; peptides without Tyr show the background
# [2] = system: c-Abl (mouse); experiment: as above
# [3] = system: c-Src; experiment: as above
# [4] = molecular target: Hck (UniProt P08631); experiment: as above
# [5] = molecular target: Jak2 (UniProt O60674); experiment: as above
# [6] = molecular target: MERTK (UniProt Q12866); experiment: as above
# [7] = molecular target: Fes (UniProt P07332); experiment: as above
# [8] = molecular target: Fyn (UniProt P06241); experiment: as above
# [9] = molecular target: FGFR3 (UniProt P22607); experiment: as above
# [10] = system: Fer (mouse); experiment: as above
# [11] = system: AncSZ; experiment: as above
# [12] = molecular target: EPHB1 (UniProt P54762); experiment: as above
# [13] = molecular target: EPHB2 (UniProt P29323); experiment: as above
# [14] = molecular target: Grb2 SH2 (UniProt P62993); experiment: SH2 binding enrichment of the phosphorylated peptide, bacterial display (enrichment ratio); higher = better substrate or ligand; peptides without Tyr show the background
# [15] = molecular target: SHP2-C SH2; experiment: as above
# [16] = molecular target: c-Src SH2; experiment: as above
# 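For SH2 binding enrichment of the phosphorylated peptide, bacterial display in this document: peptide library displayed on the E. coli surface as eCPX fusions, selected cells deep-sequenced, score is each peptide's frequency after selection divided by its frequency in the input.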
# 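For phosphorylation enrichment, bacterial display in this document: 11-residue human phosphosite peptides and single-mutation variants displayed on the E. coli surface, counted by deep sequencing, each peptide's frequency after selection divided by its frequency in the unselected input library; frequency after pTyr selection over input frequency; kinase dosed for 20-30% of maximal phosphorylation in three min.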
# Sequence of Grb2 SH2 (P62993 whole entry, looked up): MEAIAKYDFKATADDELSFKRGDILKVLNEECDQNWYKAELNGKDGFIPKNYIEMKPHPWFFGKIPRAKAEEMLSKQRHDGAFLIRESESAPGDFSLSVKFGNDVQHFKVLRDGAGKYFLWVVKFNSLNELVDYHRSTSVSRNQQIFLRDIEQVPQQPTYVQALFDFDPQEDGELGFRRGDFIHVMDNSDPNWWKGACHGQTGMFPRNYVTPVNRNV
# Sequence of Fes (P07332 whole entry, looked up): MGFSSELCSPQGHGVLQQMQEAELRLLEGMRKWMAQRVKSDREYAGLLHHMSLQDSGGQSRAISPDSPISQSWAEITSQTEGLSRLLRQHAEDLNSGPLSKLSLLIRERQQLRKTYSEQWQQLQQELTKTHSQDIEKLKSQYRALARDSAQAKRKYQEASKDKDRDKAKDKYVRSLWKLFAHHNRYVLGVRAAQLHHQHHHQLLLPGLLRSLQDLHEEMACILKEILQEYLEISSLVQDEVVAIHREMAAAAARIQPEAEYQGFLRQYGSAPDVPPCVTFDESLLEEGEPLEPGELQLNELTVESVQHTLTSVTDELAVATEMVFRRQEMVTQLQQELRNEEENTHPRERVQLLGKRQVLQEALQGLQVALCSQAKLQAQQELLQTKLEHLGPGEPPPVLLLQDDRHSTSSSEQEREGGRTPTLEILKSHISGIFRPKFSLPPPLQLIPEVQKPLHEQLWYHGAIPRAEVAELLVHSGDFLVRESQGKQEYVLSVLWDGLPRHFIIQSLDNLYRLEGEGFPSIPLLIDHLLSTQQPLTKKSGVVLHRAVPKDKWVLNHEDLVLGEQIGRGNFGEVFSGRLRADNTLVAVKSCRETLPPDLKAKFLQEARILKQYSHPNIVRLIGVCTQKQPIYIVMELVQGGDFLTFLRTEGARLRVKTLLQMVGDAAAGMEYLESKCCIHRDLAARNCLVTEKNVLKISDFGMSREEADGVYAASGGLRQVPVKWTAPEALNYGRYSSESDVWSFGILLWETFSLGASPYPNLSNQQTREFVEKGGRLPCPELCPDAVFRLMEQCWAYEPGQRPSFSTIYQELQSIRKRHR
# Sequence of Hck (P08631 whole entry, looked up): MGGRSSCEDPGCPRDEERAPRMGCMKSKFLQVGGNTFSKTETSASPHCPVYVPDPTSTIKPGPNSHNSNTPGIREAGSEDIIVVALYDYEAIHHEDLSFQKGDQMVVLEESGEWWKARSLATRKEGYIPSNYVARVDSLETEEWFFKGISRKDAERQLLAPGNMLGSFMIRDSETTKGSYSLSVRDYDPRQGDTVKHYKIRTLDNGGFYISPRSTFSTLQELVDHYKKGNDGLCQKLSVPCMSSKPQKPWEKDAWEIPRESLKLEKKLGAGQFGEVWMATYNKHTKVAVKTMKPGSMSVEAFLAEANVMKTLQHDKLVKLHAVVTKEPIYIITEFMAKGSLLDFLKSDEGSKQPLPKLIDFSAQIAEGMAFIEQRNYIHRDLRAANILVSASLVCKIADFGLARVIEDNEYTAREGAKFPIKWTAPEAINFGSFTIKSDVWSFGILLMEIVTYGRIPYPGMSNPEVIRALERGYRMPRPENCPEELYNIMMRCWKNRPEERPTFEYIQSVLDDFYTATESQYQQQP
# Sequence of FGFR1 (P11362 whole entry, looked up): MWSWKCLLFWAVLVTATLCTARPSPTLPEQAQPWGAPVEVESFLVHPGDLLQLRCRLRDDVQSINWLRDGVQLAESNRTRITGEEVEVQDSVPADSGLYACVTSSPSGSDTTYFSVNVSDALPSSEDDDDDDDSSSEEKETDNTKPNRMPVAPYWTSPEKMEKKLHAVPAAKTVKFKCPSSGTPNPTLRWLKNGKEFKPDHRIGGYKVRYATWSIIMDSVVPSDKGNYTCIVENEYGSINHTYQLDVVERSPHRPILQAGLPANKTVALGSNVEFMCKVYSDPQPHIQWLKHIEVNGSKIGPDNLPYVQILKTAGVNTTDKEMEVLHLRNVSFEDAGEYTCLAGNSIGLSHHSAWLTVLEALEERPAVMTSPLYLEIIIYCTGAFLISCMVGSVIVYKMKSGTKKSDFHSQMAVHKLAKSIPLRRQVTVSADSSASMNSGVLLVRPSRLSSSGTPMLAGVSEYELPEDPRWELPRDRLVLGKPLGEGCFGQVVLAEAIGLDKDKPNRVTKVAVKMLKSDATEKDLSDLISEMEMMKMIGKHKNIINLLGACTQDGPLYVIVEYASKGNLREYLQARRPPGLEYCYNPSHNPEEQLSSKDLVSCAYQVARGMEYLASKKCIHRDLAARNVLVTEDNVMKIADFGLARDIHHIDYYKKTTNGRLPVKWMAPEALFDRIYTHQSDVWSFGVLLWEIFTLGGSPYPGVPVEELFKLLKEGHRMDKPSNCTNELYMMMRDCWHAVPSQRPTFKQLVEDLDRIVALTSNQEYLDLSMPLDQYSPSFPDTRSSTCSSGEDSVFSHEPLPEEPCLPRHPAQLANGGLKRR
# Sequence of EPHB1 (P54762 whole entry, looked up): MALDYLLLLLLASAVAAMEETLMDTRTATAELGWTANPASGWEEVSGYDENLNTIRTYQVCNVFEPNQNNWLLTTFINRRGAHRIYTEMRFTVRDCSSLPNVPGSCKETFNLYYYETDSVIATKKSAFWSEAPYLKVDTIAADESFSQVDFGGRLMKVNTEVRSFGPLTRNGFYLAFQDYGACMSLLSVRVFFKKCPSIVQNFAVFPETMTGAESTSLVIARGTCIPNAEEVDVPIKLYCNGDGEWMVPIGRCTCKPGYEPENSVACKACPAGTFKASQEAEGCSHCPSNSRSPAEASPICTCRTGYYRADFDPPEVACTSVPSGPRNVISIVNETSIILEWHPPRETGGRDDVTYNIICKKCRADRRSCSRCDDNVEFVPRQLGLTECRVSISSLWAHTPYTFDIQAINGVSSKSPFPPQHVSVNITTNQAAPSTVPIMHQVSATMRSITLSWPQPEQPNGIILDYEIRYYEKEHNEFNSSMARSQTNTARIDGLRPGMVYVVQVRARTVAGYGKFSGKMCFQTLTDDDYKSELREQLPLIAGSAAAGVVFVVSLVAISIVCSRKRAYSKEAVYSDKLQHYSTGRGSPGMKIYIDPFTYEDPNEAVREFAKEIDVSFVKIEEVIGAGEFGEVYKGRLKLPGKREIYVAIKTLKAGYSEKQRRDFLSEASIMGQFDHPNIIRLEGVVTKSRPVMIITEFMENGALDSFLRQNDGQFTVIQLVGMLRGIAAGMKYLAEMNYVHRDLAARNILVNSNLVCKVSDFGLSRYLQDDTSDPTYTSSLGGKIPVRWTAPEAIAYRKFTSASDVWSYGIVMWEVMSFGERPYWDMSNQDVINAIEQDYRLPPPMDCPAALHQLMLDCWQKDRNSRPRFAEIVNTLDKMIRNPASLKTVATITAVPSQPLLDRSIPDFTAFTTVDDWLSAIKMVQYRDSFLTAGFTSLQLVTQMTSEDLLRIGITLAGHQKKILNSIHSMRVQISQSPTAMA
# Sequence of Jak2 (O60674 whole entry, looked up): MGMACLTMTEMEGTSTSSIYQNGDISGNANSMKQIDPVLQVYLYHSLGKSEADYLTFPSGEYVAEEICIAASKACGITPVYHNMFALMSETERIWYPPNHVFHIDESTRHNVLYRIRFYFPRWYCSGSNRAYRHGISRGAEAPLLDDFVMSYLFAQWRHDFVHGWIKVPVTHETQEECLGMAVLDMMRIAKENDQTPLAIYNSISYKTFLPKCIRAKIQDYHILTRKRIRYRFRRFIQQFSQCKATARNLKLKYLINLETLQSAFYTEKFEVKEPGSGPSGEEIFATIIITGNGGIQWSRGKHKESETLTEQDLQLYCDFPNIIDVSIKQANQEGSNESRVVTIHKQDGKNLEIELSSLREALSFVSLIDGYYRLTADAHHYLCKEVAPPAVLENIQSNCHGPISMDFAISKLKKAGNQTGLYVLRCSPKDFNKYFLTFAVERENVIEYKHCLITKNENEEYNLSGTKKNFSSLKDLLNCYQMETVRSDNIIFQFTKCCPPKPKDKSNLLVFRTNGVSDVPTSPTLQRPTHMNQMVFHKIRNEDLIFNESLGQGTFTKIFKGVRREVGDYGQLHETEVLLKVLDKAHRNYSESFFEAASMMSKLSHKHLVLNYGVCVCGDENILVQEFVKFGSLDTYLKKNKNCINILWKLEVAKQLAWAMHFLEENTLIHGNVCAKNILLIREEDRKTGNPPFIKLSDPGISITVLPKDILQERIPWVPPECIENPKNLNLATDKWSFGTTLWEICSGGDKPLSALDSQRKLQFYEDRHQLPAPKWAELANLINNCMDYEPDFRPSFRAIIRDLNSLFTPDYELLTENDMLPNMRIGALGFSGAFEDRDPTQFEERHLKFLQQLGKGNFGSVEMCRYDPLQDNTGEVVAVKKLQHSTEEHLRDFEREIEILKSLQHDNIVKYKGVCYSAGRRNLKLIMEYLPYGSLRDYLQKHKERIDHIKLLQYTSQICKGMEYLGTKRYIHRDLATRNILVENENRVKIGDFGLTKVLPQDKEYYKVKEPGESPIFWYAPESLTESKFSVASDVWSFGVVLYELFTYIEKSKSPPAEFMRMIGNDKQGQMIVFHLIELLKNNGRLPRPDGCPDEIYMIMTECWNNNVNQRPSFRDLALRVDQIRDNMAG
# Sequence of Fyn (P06241 whole entry, looked up): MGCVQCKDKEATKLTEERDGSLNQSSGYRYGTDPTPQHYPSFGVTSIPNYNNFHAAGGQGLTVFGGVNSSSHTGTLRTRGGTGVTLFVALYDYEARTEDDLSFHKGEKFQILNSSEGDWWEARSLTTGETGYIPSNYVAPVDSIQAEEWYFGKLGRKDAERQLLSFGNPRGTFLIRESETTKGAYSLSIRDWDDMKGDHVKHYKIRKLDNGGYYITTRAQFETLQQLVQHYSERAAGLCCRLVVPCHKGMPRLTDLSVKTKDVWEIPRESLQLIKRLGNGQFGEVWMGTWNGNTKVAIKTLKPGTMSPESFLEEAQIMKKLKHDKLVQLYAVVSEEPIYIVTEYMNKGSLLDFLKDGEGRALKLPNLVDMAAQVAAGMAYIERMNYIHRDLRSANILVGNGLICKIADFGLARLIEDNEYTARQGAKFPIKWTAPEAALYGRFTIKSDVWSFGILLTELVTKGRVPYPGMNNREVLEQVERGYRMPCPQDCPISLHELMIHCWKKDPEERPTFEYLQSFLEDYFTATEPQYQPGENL
Sequence,phosphorylation enrichment [1],phosphorylation enrichment [2],phosphorylation enrichment [3],phosphorylation enrichment [4],phosphorylation enrichment [5],phosphorylation enrichment [6],phosphorylation enrichment [7],phosphorylation enrichment [8],phosphorylation enrichment [9],phosphorylation enrichment [10],phosphorylation enrichment [11],phosphorylation enrichment [12],phosphorylation enrichment [13],SH2 binding enrichment [14],SH2 binding enrichment [15],SH2 binding enrichment [16]
QCTSAYPLQPE [NANS_Y188],0.616,2.7,0.728,0.623,1.65,0.682,1.46,0.832,0.942,0.675,1.51,0.719,0.813,1.06,1.09,0.594
QCTSDYPEHVC [SART3_Y541],0.929,1.23,0.583,0.831,1.64,0.565,1.44,0.605,0.969,0.668,1.36,0.929,0.523,0.939,0.833,0.866
QDLRLYRPHLA [BTK_Y617_G613D],0.358,0.571,0.474,0.548,1.17,0.363,0.931,0.505,0.488,0.5,0.578,0.517,0.467,0.728,0.555,0.581
QEALEYFMKQV [PIK3CA_Y1038_M1043V],0.408,0.597,0.463,0.416,0.849,0.289,0.978,0.382,0.565,0.402,1.18,0.467,0.392,0.664,1.05,0.472
QEVLEYFMKQM [PIK3CA_Y1038_A1035V],0.954,1.31,0.963,0.95,2.27,0.68,1.94,0.999,1.68,0.719,2.18,1.15,0.993,0.663,0.584,0.479
QGLRLYRSHLA [BTK_Y617_P619S],0.552,0.801,0.51,0.38,0.75,0.417,1.04,0.571,0.5,0.527,0.935,0.718,0.408,1.21,0.888,1.03
QGRQTYLLQPA [DDR2_Y813_P815L],0.63,0.693,0.701,0.411,0.726,0.555,0.514,0.462,0.484,0.388,0.498,0.5,0.529,1.21,0.895,0.618
QIGRKYKKVRF [F8_Y442_R437Q],0.807,0.502,1.03,1.19,1.62,0.923,1.04,0.795,1.11,0.836,0.84,0.902,0.44,0.675,0.622,0.321
QKFMAYLSQGW [HLCS_Y236_G241W],0.668,0.903,0.439,0.501,1.75,0.83,1.32,0.639,1.14,0.86,1.19,0.812,1.05,0.917,1.5,0.689
QKLPSYILENN [VPS13B_Y2774],0.625,1.11,0.499,0.792,1.49,0.529,1.94,0.629,0.938,0.681,1.53,0.787,0.701,0.755,0.762,0.607
QMVGMYASSYM [AVPR2_Y124],0.611,0.921,1.45,1.3,0.659,2.74,1.07,1.11,0.783,1.07,1.27,1.21,1.09,0.806,0.946,1.23
QNTGDDYDLYG [PTPN11_Y62_Y62D],0.82,0.841,1.99,1.86,1.9,0.697,1.56,1.35,1.51,0.674,2.09,0.985,1.63,0.92,0.803,0.58
QNTGDYCDLFG [PTPN11_Y62_Y63C_YF],5.82,1.17,0.789,0.696,1.3,0.806,1.41,0.681,3.7,0.966,3.53,9.89,8.46,0.827,0.491,0.723
QNTGDYYDLYG [PTPN11_Y62],17.1,1.1,5.07,4.7,5.11,4.37,1.29,5.48,16.1,1.31,5.36,16.7,17.8,0.911,0.725,0.849
QPDFLYDHIQP [TRRAP_Y862],0.622,0.928,5.86,9.82,1.21,7.66,1.74,6.9,1.45,12,2.58,5.27,3.31,0.964,0.369,0.376
QPGDIYHQTWA [GBA_Y244],3.42,2.9,3.42,3.66,0.938,2.84,0.963,3.11,2.69,1.3,0.989,0.825,0.88,0.626,0.352,0.439
